# How the values were obtained:
# Assay in all cases: cell-based or functional assay
# [1] = molecular target: CNE58 Env pseudovirus (HIV-1)
# [2] = molecular target: CNE21 Env pseudovirus (HIV-1)
# [3] = molecular target: HIV-16055-2.3 Env pseudovirus (HIV-1)
# [4] = molecular target: CAAN5342.A2 Env pseudovirus (HIV-1)
# [5] = molecular target: Ce0682_E4 Env pseudovirus (HIV-1)
# [6] = molecular target: 62357_14_D3_4589 Env pseudovirus (HIV-1)
# [7] = molecular target: CNE20 Env pseudovirus (HIV-1)
# [8] = molecular target: 6535.3 Env pseudovirus (HIV-1)
# [9] = molecular target: 246F C1G Env pseudovirus (HIV-1)
# [10] = molecular target: 1056_10_TA11_1826 Env pseudovirus (HIV-1)
# [11] = molecular target: Q461.e2 Env pseudovirus (HIV-1)
# [12] = molecular target: 7030102001E5(Rev-) Env pseudovirus (HIV-1)
# [13] = molecular target: ZM197M.PB7 Env pseudovirus (HIV-1)
# [14] = molecular target: ZM135M.PL10a Env pseudovirus (HIV-1)
# [15] = molecular target: Du156.12 Env pseudovirus (HIV-1)
# [16] = molecular target: Du422.1 Env pseudovirus (HIV-1)
# [17] = molecular target: ZM214M.PL15 Env pseudovirus (HIV-1)
# [18] = molecular target: T257-31 Env pseudovirus (HIV-1)
# [19] = molecular target: HIV-16845-2.22 Env pseudovirus (HIV-1)
# [20] = molecular target: TRJO4551.58 Env pseudovirus (HIV-1)
# [21] = molecular target: 1394C9G1(Rev-) Env pseudovirus (HIV-1)
# [22] = molecular target: Ce703010054_2A2 Env pseudovirus (HIV-1)
# [23] = molecular target: ZM247v1(Rev-) Env pseudovirus (HIV-1)
# [24] = molecular target: ZM249M.PL1 Env pseudovirus (HIV-1)
# [25] = molecular target: Ce1086_B2 Env pseudovirus (HIV-1)
# [26] = molecular target: Ce0393_C3 Env pseudovirus (HIV-1)
# [27] = molecular target: Q23.17 Env pseudovirus (HIV-1)
# [28] = molecular target: Ce1176_A3 Env pseudovirus (HIV-1)
# [29] = molecular target: 928-28 Env pseudovirus (HIV-1)
# [30] = molecular target: MS208.A1 Env pseudovirus (HIV-1)
# [31] = molecular target: CNE19 Env pseudovirus (HIV-1)
# [32] = molecular target: 249M B10 Env pseudovirus (HIV-1)
# [33] = molecular target: 1006_11_C3_1601 Env pseudovirus (HIV-1)
# [34] = molecular target: SC422661.8 Env pseudovirus (HIV-1)
# [35] = molecular target: ZM53M.PB12 Env pseudovirus (HIV-1)
# [36] = molecular target: Q842.d12 Env pseudovirus (HIV-1)
binder,measurement,setting,value
"N49P22 (antibody, V domains shown) V domain 1: HIQLLQSGPQVKKSGDTVRISCETSGYNFVDSRIHWVRQTPEKRLRWMGWINPLQGGVNYAPEFQGRIRMTRDTFIDTVYVDLSGLTPADTAYYYCARGIDGKSYPFHFWGHGTRVTVFS V domain 2: RFALTQPASVSGSPGQTITITCAGGSVSWFHFPPGKTPRLIIYESSKRPSGVSPRFSGSQSGSTASLIISGLQSDDEGTYFCSILEFFGRGTLVTVLS",IC50,[1],28.4 µg/mL
same,IC80,[1],> 50 µg/mL
same,MPI,[1],57
same,IC50,[2],> 50 µg/mL
same,IC80,[2],> 50 µg/mL
same,MPI,[2],0
same,IC50,[3],4.66 µg/mL
same,IC80,[3],39.7 µg/mL
same,MPI,[3],83
same,IC50,[4],0.425 µg/mL
same,IC80,[4],1.88 µg/mL
same,MPI,[4],99
same,IC50,[5],1.13 µg/mL
same,IC80,[5],> 50 µg/mL
same,MPI,[5],75
same,IC50,[6],> 50 µg/mL
same,IC80,[6],> 50 µg/mL
same,MPI,[6],13
same,IC50,[7],> 50 µg/mL
same,IC80,[7],> 50 µg/mL
same,MPI,[7],18
same,IC50,[8],> 50 µg/mL
same,IC80,[8],> 50 µg/mL
same,MPI,[8],5
same,IC50,[9],> 50 µg/mL
same,IC80,[9],> 50 µg/mL
same,MPI,[9],10
same,IC50,[10],2.99 µg/mL
same,IC80,[10],> 50 µg/mL
same,MPI,[10],69
same,IC50,[11],11.2 µg/mL
same,IC80,[11],> 50 µg/mL
same,MPI,[11],66
same,IC50,[12],> 50 µg/mL
same,IC80,[12],> 50 µg/mL
same,MPI,[12],21
same,IC50,[13],2.58 µg/mL
same,IC80,[13],25.1 µg/mL
same,MPI,[13],84
same,IC50,[14],> 50 µg/mL
same,IC80,[14],> 50 µg/mL
same,MPI,[14],27
same,IC50,[15],> 50 µg/mL
same,IC80,[15],> 50 µg/mL
same,MPI,[15],4
same,IC50,[16],> 50 µg/mL
same,IC80,[16],> 50 µg/mL
same,MPI,[16],4
same,IC50,[17],> 50 µg/mL
same,IC80,[17],> 50 µg/mL
same,MPI,[17],25
same,IC50,[18],> 50 µg/mL
same,IC80,[18],> 50 µg/mL
same,MPI,[18],43
same,IC50,[19],4.6 µg/mL
same,IC80,[19],41.9 µg/mL
same,MPI,[19],87
same,IC50,[20],> 50 µg/mL
same,IC80,[20],> 50 µg/mL
same,MPI,[20],28
same,IC50,[21],> 50 µg/mL
same,IC80,[21],> 50 µg/mL
same,MPI,[21],35
same,IC50,[22],> 50 µg/mL
same,IC80,[22],> 50 µg/mL
same,MPI,[22],0
same,IC50,[23],> 50 µg/mL
same,IC80,[23],> 50 µg/mL
same,MPI,[23],11
same,IC50,[24],> 50 µg/mL
same,IC80,[24],> 50 µg/mL
same,MPI,[24],0
same,IC50,[25],> 50 µg/mL
same,IC80,[25],> 50 µg/mL
same,MPI,[25],0
same,IC50,[26],> 50 µg/mL
same,IC80,[26],> 50 µg/mL
same,MPI,[26],12
same,IC50,[27],0.321 µg/mL
same,IC80,[27],2.4 µg/mL
same,MPI,[27],96
same,IC50,[28],> 50 µg/mL
same,IC80,[28],> 50 µg/mL
same,MPI,[28],23
same,IC50,[29],> 50 µg/mL
same,IC80,[29],> 50 µg/mL
same,MPI,[29],32
same,IC50,[30],> 50 µg/mL
same,IC80,[30],> 50 µg/mL
same,MPI,[30],17
same,IC50,[31],0.873 µg/mL
same,IC80,[31],8.19 µg/mL
same,MPI,[31],92
same,IC50,[32],> 50 µg/mL
same,IC80,[32],> 50 µg/mL
same,MPI,[32],4
same,IC50,[33],0.898 µg/mL
same,IC80,[33],14.7 µg/mL
same,MPI,[33],83
same,IC50,[34],0.12 µg/mL
same,IC80,[34],0.544 µg/mL
same,MPI,[34],100
same,IC50,[35],1.2 µg/mL
same,IC80,[35],11.8 µg/mL
same,MPI,[35],91
same,IC50,[36],0.079 µg/mL
same,IC80,[36],0.359 µg/mL
same,MPI,[36],100
"N49P23 (antibody, V domains shown) VH: QVRLVQSGAGARKTGASMKLSCSTSGYTFTTHHGHFINWVRQARGQGLEWMGWMNPMTGQMNIEGKFQGRVTLTRDIYSDTAYMEMTRLTTGDTGTYYCARGDFGQNYPFHYWGQGSLVIVSS VL: LSALTQPASVSGSPGQSVTISCSGTNRYLVSWYQQHPDKAPKLIIYDDNKRPSGISDRFSASRPDDTASLTISGLQTGDEATYWCASYERFGGGTRLTVLS",IC50,[1],> 50 µg/mL
same,IC80,[1],> 50 µg/mL
same,MPI,[1],9
same,IC50,[2],> 50 µg/mL
same,IC80,[2],> 50 µg/mL
same,MPI,[2],0
same,IC50,[3],> 50 µg/mL
same,IC80,[3],> 50 µg/mL
same,MPI,[3],17
same,IC50,[4],0.412 µg/mL
same,IC80,[4],1.38 µg/mL
same,MPI,[4],100
same,IC50,[5],1.39 µg/mL
same,IC80,[5],> 50 µg/mL
same,MPI,[5],76
same,IC50,[6],0.057 µg/mL
same,IC80,[6],0.76 µg/mL
same,MPI,[6],95
same,IC50,[7],45.4 µg/mL
same,IC80,[7],> 50 µg/mL
same,MPI,[7],51
same,IC50,[8],0.127 µg/mL
same,IC80,[8],0.855 µg/mL
same,MPI,[8],100
same,IC50,[9],> 50 µg/mL
same,IC80,[9],> 50 µg/mL
same,MPI,[9],11
same,IC50,[10],0.075 µg/mL
same,IC80,[10],0.483 µg/mL
same,MPI,[10],100
same,IC50,[11],0.099 µg/mL
same,IC80,[11],0.464 µg/mL
same,MPI,[11],100
same,IC50,[12],0.172 µg/mL
same,IC80,[12],0.797 µg/mL
same,MPI,[12],100
same,IC50,[13],0.1 µg/mL
same,IC80,[13],0.385 µg/mL
same,MPI,[13],100
same,IC50,[14],> 50 µg/mL
same,IC80,[14],> 50 µg/mL
same,MPI,[14],36
same,IC50,[15],> 50 µg/mL
same,IC80,[15],> 50 µg/mL
same,MPI,[15],0
same,IC50,[16],> 50 µg/mL
same,IC80,[16],> 50 µg/mL
same,MPI,[16],4
same,IC50,[17],0.061 µg/mL
same,IC80,[17],0.614 µg/mL
same,MPI,[17],100
same,IC50,[18],0.178 µg/mL
same,IC80,[18],1.17 µg/mL
same,MPI,[18],100
same,IC50,[19],> 50 µg/mL
same,IC80,[19],> 50 µg/mL
same,MPI,[19],20
same,IC50,[20],0.016 µg/mL
same,IC80,[20],0.068 µg/mL
same,MPI,[20],100
same,IC50,[21],> 50 µg/mL
same,IC80,[21],> 50 µg/mL
same,MPI,[21],34
same,IC50,[22],> 50 µg/mL
same,IC80,[22],> 50 µg/mL
same,MPI,[22],35
same,IC50,[23],> 50 µg/mL
same,IC80,[23],> 50 µg/mL
same,MPI,[23],24
same,IC50,[24],> 50 µg/mL
same,IC80,[24],> 50 µg/mL
same,MPI,[24],2
same,IC50,[25],0.063 µg/mL
same,IC80,[25],0.303 µg/mL
same,MPI,[25],100
same,IC50,[26],> 50 µg/mL
same,IC80,[26],> 50 µg/mL
same,MPI,[26],29
same,IC50,[27],0.01 µg/mL
same,IC80,[27],0.046 µg/mL
same,MPI,[27],100
same,IC50,[28],0.297 µg/mL
same,IC80,[28],1.38 µg/mL
same,MPI,[28],100
same,IC50,[29],0.021 µg/mL
same,IC80,[29],0.122 µg/mL
same,MPI,[29],100
same,IC50,[30],0.048 µg/mL
same,IC80,[30],0.279 µg/mL
same,MPI,[30],100
same,IC50,[31],> 50 µg/mL
same,IC80,[31],> 50 µg/mL
same,MPI,[31],40
same,IC50,[32],> 50 µg/mL
same,IC80,[32],> 50 µg/mL
same,MPI,[32],20
same,IC50,[33],0.015 µg/mL
same,IC80,[33],0.054 µg/mL
same,MPI,[33],100
same,IC50,[34],0.069 µg/mL
same,IC80,[34],0.245 µg/mL
same,MPI,[34],100
same,IC50,[35],0.135 µg/mL
same,IC80,[35],0.651 µg/mL
same,MPI,[35],100
same,IC50,[36],0.007 µg/mL
same,IC80,[36],0.022 µg/mL
same,MPI,[36],100

# Source: patent publication US20240117018A1
